B1: HIV-1 protease Flap+(I54) (L10I, G48V, V82A on the pWT backbone) (enzyme)
chain: not shown
B2: HIV-1 protease Flap+(I54A) (L10I, G48V, I54A, V82A on the pWT backbone) (enzyme)
chain: not shown
B3: HIV-1 protease, pseudo wild type (pWT) (enzyme)
chain: not shown
B4: HIV-1 protease Flap+(I54V) (L10I, G48V, I54V, V82A on the pWT backbone) (enzyme)
chain: not shown

Target: the molecule itself
Assay: other fluorescence titration

Protein	Kd [nM]
B1	< 250
B2	< 250
B3	< 250
B4	< 250
